Source: publication PMC4216633 (Journal of nuclear medicine : official publication, Society …, 2014)

What was measured:
[1] = tested on: thrombus; assay: Ex vivo biodistribution in rat model of arterial thrombosis; conditions: rat carotid crush thrombosis
[2] = rat, in vivo, iv
[3] = rat, in vivo

Row | Substance | uptake at the target site (thrombus), persisted over 5h [1] | elimination half-life of the intact probe in blood [2] [min] | intact probe in blood at 4h post-injection [3] [%]
1 | FHCHypY(3-Cl)DLCHIL-PXD (disulfide) [FBP8] | 0.5–0.8 % ID/g | 13.8 ± 3.8 | > 85
2 | FHCHypY(3-Cl)DLCHIL-PXD (disulfide) [FBP9] | 0.5–0.8 % ID/g | 17.9 ± 5.8 | > 85
